# Reference: US9428586B2, “Heparanase splice variant” (COMPUGEN LTD, priority 2010, dated 2016)
# Tests used:
# [1] = system: CAG myeloma, FaDu pharynx carcinoma and 293 cells; assay: Colony formation in soft agar; type: cell-based, human; conditions: over expression in CAG myeloma, FaDu and 293 cells
# Procedure: (§1) FIG. 4. T5 augments cell proliferation. A. BrdU incorporation. Morphology of control (Con), heparanase (Hepa)- and T5-infected CAG myeloma cell cultures is shown in the upper panels. […] Sub-confluent cultures of control (Vo), heparanase (Hepa)- and T5-infected CAG cells were grown in serum-free medium for 20 h followed by incubation with BrdU (1:1000) for 2 h. Cells were then fixed and immunostained with anti BrdU monoclonal antibody. Positively stained, red-brown nuclei were counted vs. blue, hematoxilin counter-stained nuclei. At least 1000 cells were counted for each cell type and the percentage of positively stained cells is noted in each panel. Fold increase in BrdU incorporation is shown graphically on the right panel. Gene silencing. 293 cells were transfected with anti-GFP (si-GFP), anti-heparanase (si-Hepa) or anti-T5 siRNA oligonucleotides and BrdU incorporation was evaluated as above except that cells were kept in serum-containing medium (lower panels). Note 2-fold decrease in BrdU incorporation following heparanase or T5 gene silencing (lower right panel). B. Colony formation in soft agar. […]
# Three ml of DMEM containing 0.5% low melt agarose (Bio-Rad, Hercules, Calif.) and 10% fetal calf serum was poured into 60 mm petri dishes. […] Colonies were visualized and counted under a microscope after 2-5 weeks, as described.
# [2] = system: Src; assay: Src phosphorylation (immunoblot, densitometry) in CAG myeloma cells; type: cell-based, human; conditions: infected CAG myeloma cells, serum-free
# Procedure: (§2) FIG. 3. T5 augments Src phosphorylation. A. Over expression. CAG myeloma (left) and 293 (right) cells infected with heparanase (Hepa), T5, or control empty vector (Vo) were grown in the absence (−) or presence (+) of heparin (50 μg/ml) under serum-free conditions. Total cell lysates were subjected to immunoblotting applying anti-heparanase 1453 (upper and second panels), anti-phospho-Src (p-Src, third panels), anti-Src (fourth panels) anti-phospho-Erk (p-Erk, fifth panels), and anti-Erk2 (sixth panels) antibodies. Src phosphorylation index was calculated by densitometry analysis of phosphorylated Src levels divided by the total Src values. Data is presented as average fold increase ±SE of Src phosphorylation compared with control, Vo cells, set arbitrary to a value of 1 (lower panels) of five independent experiments. B. Gene silencing. Parental 293 cells were transfected with anti-heparanase, anti-T5, or control siRNAs. Total RNA was extracted and RT-PCR analysis was performed applying T5 (upper panel), heparanase (Hepa, second panel) and GAPDH (third panel) specific primers. Corresponding cell lysates were subjected to immunoblotting applying phospho-Src (p-Src, fourth panel), Src (fifth panel), phospho-Erk (p-Erk, sixth panel) and Erk2 (seventh panel) antibodies. Src phosphorylation index was calculated as above and is shown graphically in the lower panel. Note decreased Src phosphorylation levels upon T5 down regulation.
# Preparation of cell lysates, protein blotting, and measurement of heparanase enzymatic activity were carried out as described previously (Zetser, A., et al., 2006, Cancer Res 66, 1455-1463; Fux, L., et al., 2009, Cancer Res 69, 1758-1767).
# [3] = Binding to heparin beads; conditions: lysates of over expressing 293 cells, heparin beads
# Text: FIG. 7. […] A. Cell lysates. […] B,C. Peptide analysis. […] C. Enzymatic activity.
# [4] = system: Erk; assay: Erk phosphorylation (immunoblot) in CAG myeloma and 293 cells; type: cell-based, human
# Procedure: as §2, with “Note decreased Src phosphorylation levels upon T5 down regulation.” left out
# [5] = system: CAG myeloma cells; assay: Cell proliferation by BrdU incorporation, CAG myeloma cells; type: cell-based, human; conditions: infected CAG cells, serum-free 20 h, BrdU 2 h; control Vo 24±3%
# Procedure: as §1
# Cell proliferation was analyzed by BrdU incorporation using cell proliferation labeling reagent (1:1000, GE Healthcare), as described in Zetser, A., et al (2003 Cancer Res 63, 7733-7741). At least 1000 cells were counted for each cell type.
molecule,measurement,setting,value
"T5: novel splice variant of heparanase; truncated, enzymatically inactive 169 amino acid protein (protein, listed as Homo sapiens) MLLRSKPALPPPLMLLLLGPLGPLSPGALPRPAQAQDVVDLDFFTQEPLHLVSPSFLSVTIDANLATDPRFLILLGSPKLRTLARGLSPAYLRFGGTKTDFLIFDPKKESTFEERSYWQSQVNQDICKYGSIPPDVEEKLRLEWPYQEQLLLREHYQKKFKNSTYSSKK","colony number, size and cell density in soft agar",[1],markedly increased
same,Src phosphorylation increase vs control Vo cells,[2],comparable induction of Src phosphorylation
same,heparin binding of protein in cell lysates,[3],failed to bind heparin
same,Erk phosphorylation upon over expression,[4],not affected
same,BrdU incorporation (positively stained cells),[5],52±5%
